Molecular target: C5b6 (UniProt P13671)
Test: BLI; as a1, but 100nM C7 pre-incubated with anti-C7 mAb TPP1653 (200nM or 2nM) before dipping the C5b6 sensors, then C8 and C9

binding response, percent of max response in controls (with 200nM TPP1653) (% of max response in controls): 60
Substance: human complement C7 (from UniProt P10643 23-843) (natural protein)
